Blank lines part the entries; values can stand above or below the substance they belong to.
What was measured:
Assay in all cases: SDS-PAGE in the absence of reductant
[1] = target: endogenous COS-1 cell TSP (African green monkey (endogenous in COS-1))
[2] = target: truncated TSP protein Pro449 (human)
[3] = target: truncated TSP protein Val333 (human)

Chain of truncated TSP protein Pro449 (domain or fragment) (P07996 374-552): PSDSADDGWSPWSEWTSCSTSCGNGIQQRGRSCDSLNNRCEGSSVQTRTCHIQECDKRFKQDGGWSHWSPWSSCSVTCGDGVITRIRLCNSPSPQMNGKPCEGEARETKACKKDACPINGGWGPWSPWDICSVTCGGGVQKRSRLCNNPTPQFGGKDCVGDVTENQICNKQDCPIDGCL
Chain of truncated TSP protein Val333 (domain or fragment) (P07996 374-552): as above

stoichiometry N [1]: 3
Substance: endogenous COS-1 cell TSP (natural protein)

stoichiometry N [2]: 3
Substance: truncated TSP protein Pro449 (domain or fragment)

stoichiometry N [3]: 3
Substance: truncated TSP protein Val333 (domain or fragment)
